Key:
HIV-1 Peptide 1904 [1] = molecular target: T1, HIV-1 Peptide 1904 (HIV-1); assay: MATRIX screen of GST-PDZ array, modified G assay ELISA; 'Intensity of Hit'
T1 construct: also called HIV peptide 1904
Description: (§1) The primary MATRIX screen against all PDZ proteins in the library was performed under pre-incubation conditions, which are a modification of the G assay. A pre-incubation assay incubates the peptide with the HRP-streptavidin before addition of the mixture to the PDZ-coated plate. The subsequent titrations of the peptide against the PDZs of interest were performed under normal ELISA G assay conditions. In normal conditions the peptide is incubated on the PDZ coated plate before the later addition of the HRP-streptavidin.
(§2) Prepare peptides in half of volume need with double of desired concentration. […] Dilute HRP (1:1000) in another half of volume (same volume with peptide) then mix with peptides. […] Incubate the peptide-HRP mixtures for 20 minutes at RT 8. Wash plate 3× with cold PBS* 9. Add peptide-HRP mixtures at 50 μl per well (write time on plate) 10. […] Turn on plate reader and prepare files 12. Promptly wash plate 5× with room temperature PBS 13. Add 100 μl/well TMB substrate (write time on plate) 14. Incubate in dark at room temp for a maximum of 30 minutes 15. Stop reaction with 100 μl of 0.18M H₂SO₄, 30 min. after adding TMB 16. Take last reading at 450 nm soon after stopping reaction

HIV-1 Peptide 1905 [2] = molecular target: T2, HIV-1 Peptide 1905 (HIV-1); assay: as above
T2 construct: also called HIV peptide 1905
Description: as §1, §2

HIV-1 Peptide 1904 [3] = molecular target: T1, HIV-1 Peptide 1904; assay: modified G assay ELISA (FIG. 2C): peptide pre-incubated with streptavidin-HRP, titrated on GST-PDZ plate
HIV-1 Peptide 1904 [4] = molecular target: T1, HIV-1 Peptide 1904; assay: G assay ELISA (FIG. 1C): GST-PDZ on anti-GST plate, biotinylated peptide titrated, streptavidin-HRP
HIV-1 Peptide 1905 [5] = molecular target: T2, HIV-1 Peptide 1905; assay: G assay ELISA (FIG. 4C): GST-PDZ on anti-GST plate, biotinylated peptide titrated, streptavidin-HRP
HIV-1 Peptide 1905 [6] = molecular target: T2, HIV-1 Peptide 1905; assay: modified G assay ELISA, third experiment (text prints 'FIG. 3C' a second time, read as FIG. 5C)
HIV-1 Peptide 1905 [7] = molecular target: T2, HIV-1 Peptide 1905; assay: modified G assay ELISA (FIG. 3C): peptide pre-incubated with streptavidin-HRP, titrated on GST-PDZ plate

B1: KIAA0807 MAST2, GST fusion (other)
chain: ISALGSMRPPIIIHRAGKKYGFTLRAIRVYMGDSDVYTVHHMVWHVEDGGPASEAGLRQGDLITHVNGEPVHGLVHTEVVELILKSGNKVAISTTPLENSS
binding result (HIV-1 Peptide 1904 [1]): binds
binding result (HIV-1 Peptide 1905 [2]): binds

B2: PICK1 F.L., GST fusion (other)
chain: MFADLDYDIEEDKLGIPTVPGKVTLQKDAQNLIGISIGGGAQYCPCLYIVQVFDNTPAALDGTVAAGDEITGVNGRSIKGKTKVEVAKMIQEVKGEVTIHYNKLQADPKQGMSLDIVLKKVKHRLVENMSSGTADALGLSRAILCNDGLVKRLEELERTAELYKGMTEHTKNLLRAFYELSQTHRAFGDVFSVIGVREPQPAASEAFVKFADAHRSIEKFGIRLLKTIKPMLTDLNTYLNKAIPDTRLTIKKYLDVKFEYLSYCLKVKEMDDEEYSCIALGEPLYRVSTGNYEYRLILRCRQEARARFSQMRKDVLEKMELLDQKHVQDIVFQLQRLVSTMSKYYNDCYAVLRDADVFPIEVDLAHTTLAYGLNQEEFTDGEEEEEEEDTAAGEPSRDTRGAAGPLDKGGSWCDS
binding result (HIV-1 Peptide 1905 [2]): binds

B3: KIAA0316, GST fusion (other)
chain: IPPAPRKVEMRRDPVLGFGFVAGSEKPVVVRSVTPGGPSEGKLIPGDQIVMINDEPVSAAPRERVIDLVRSCKESILLTVIQPYPSPKSEFIVTD
binding result (HIV-1 Peptide 1904 [1]): binds

B4: KIAA0751 RIM2, GST fusion (other)
chain: TLNEEHSHSDKHPVTWQPSKDGDRLIGRILLNKRLKDGSVPRDSGAMLGLKVVGGKMTESGRLCAFITKVKKGSLADTVGHLRPGDEVLEWNGRLLQGATFEEVYNIILESKPEPQVELVVSRPIG
EC50 (HIV-1 Peptide 1904 [3]): 30 nM
EC50 (HIV-1 Peptide 1904 [4]): 410 nM
EC50 (HIV-1 Peptide 1905 [5]): 182 nM
EC50 (HIV-1 Peptide 1905 [6]): 68 nM
EC50 (HIV-1 Peptide 1905 [7]): 14 nM

B5: AIPC d1, GST fusion (other)
chain: LIRPSVISIIGLYKEKGKGLGFSIAGGRDCIRGQMGIFVKTIFPNGSAAEDGRLKEGDEILDVNGIPIKGLTFQEAIHTFKQIRSGLFVLTVRTKLVSPSLTNSS
notes: also called AIPC (PDZ #1)
binding result (HIV-1 Peptide 1904 [1]): binds

B6: EZRIN Binding Protein 50 PDZ #1, GST fusion (other)
chain: LCCLEKGPNGYGFHLHGEKGKLGQYIRLVEPGSPAEKAGLLAGDRLVEVNGENVEKETHQQVVSRIRAALNAVRLLVVDPE
notes: also called EBP50 d1; EBP50 (PDZ #1)
binding result (HIV-1 Peptide 1905 [2]): binds

B7: INADL d3, GST fusion (other)
chain: NVELVRKDGQSLGIRIVGYVGTSHTGEASGIYVKSIIPGSAAYHNGHIQVNDKIVAVDGVNIQGFANHDVVEVLRNAGQVVHLTLVRRK
notes: also called INADL (PDZ #3)
binding result (HIV-1 Peptide 1904 [1]): binds

B8: MAGI1 d1, GST fusion (other)
chain: PSELKGKFIHTKLRKSSRGFGFTVVGGDEPDEFLQIKSLVLDGPAALDGKMETGDVIVSVNDTCVLGHTHAQVVKIFQSIPIGASVDLELCRGYPLPFDPDGIHRD
notes: also called MAGI1 (PDZ #1)
binding result (HIV-1 Peptide 1904 [1]): binds

B9: KIAA1284, GST fusion (other)
chain: KDVNVYVNPKKLTVIKAKEQLKLLEVLVGIIHQTKWSWRRTGKQGDGERLVVHGLLPGGSAMKSGQVLIGDVLVAVNDVDVTTENIERVLSCIPGPMQVKLTFENAYDVKRET
binding result (HIV-1 Peptide 1904 [1]): binds
binding result (HIV-1 Peptide 1905 [2]): binds

From patent US20070014803A1 (ARBOR VITA, published 2007)
